Assay [1] has as its target T1, human GPVI (full-length) expressed on stably transfected CHO cells (human, UniProt Q9HCN6 21-339).
T1 chain: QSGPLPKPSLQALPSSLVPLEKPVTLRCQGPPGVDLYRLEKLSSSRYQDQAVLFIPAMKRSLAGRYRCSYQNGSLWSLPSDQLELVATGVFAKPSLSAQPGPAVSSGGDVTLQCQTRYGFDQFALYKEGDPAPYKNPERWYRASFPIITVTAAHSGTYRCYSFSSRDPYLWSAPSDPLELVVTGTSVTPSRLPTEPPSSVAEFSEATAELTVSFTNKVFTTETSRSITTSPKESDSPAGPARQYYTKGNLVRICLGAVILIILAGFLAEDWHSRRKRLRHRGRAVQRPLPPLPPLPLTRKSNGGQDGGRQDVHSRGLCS
Nature of the assay: Cell ELISA (MSD) on CHO cells expressing GPVI. How it is done: (§1) CHO cells stably transfected with either human, cynomolgus monkey, or mouse GPVI (SEQ ID NO: 1, SEQ ID NO: 2, SEQ ID NO: 3, respectively and as described in Example 1) were seeded at a density of 5000 cells/well in growth medium on a 96 well high bind plate (Meso Scale Discovery) and cultivated overnight at 37° C. and 5% CO2. Cells were blocked with PBS supplied with 5% BSA and then incubated with Fab (comprising a modified heavy chain constant region) serially diluted to concentrations between 300 nM to 5 pM in PBS supplied with 0.5% BSA. After washing, bound Fab was detected using ECL-conjugated detection antibody directed against human F(ab′)2 fragment (Jackson Immuno Research). MSD read buffer (Meso Scale Discovery) was added to cells prior to readout in a Sector Imager6000 (Meso Scale Discovery). EC50 values were calculated using Prism 5 software (GraphPad).
(In general: In an ELISA, binding on a coated surface is turned into a signal by an enzyme label.)

Assay [2] deals with T2, cynomolgus monkey GPVI (full-length) expressed on stably transfected CHO cells (cynomolgus monkey, UniProt Q9HCN6 21-339 (human entry)).
T2 chain: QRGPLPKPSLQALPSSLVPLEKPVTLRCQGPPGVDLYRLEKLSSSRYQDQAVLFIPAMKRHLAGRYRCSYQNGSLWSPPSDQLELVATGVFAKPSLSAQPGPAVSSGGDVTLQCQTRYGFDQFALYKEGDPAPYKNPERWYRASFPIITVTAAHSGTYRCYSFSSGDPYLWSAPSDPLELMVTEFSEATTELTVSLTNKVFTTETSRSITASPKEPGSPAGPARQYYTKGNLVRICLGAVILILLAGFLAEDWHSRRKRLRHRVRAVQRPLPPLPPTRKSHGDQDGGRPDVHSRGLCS
Nature of the assay: Cell ELISA (MSD) on CHO cells expressing GPVI. The procedure:
as §1

Assay [3] has as its target T3, mouse GPVI on the cell surface of mouse platelets (mouse, UniProt P0C191 22-313).
T3 construct: whole, on cells; also called GPVI on murine platelets
T3 sequence (looked up): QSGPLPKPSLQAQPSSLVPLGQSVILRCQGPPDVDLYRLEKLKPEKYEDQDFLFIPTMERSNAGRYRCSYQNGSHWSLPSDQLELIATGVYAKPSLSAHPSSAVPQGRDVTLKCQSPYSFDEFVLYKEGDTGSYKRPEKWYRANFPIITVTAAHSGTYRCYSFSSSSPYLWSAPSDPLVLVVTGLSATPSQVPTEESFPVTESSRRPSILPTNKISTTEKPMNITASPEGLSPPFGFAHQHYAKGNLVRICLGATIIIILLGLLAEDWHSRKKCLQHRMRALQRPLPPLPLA
Kind of assay: FACS on mouse platelets.

Assay [4] addresses T4, rat GPVI extracellular domain fused at its C-terminus to human IgG1 Fc (GPVI-Fc) (rat; human).
T4 construct: also called rGPVI
Nature of the assay: ELISA on coated rat GPVI-Fc.

In assay [5] the target is T5, mouse GPVI extracellular domain fused at its C-terminus to human IgG1 Fc (GPVI-Fc) (mouse; human).
T5 construct: also called mGPVI; mouse GPVI-Fc
Kind of assay: ELISA on coated mouse GPVI-Fc.

Assay [6] concerns the target T6, mouse GPVI (full-length) expressed on stably transfected CHO cells (mouse, UniProt P0C191 22-313).
T6 sequence: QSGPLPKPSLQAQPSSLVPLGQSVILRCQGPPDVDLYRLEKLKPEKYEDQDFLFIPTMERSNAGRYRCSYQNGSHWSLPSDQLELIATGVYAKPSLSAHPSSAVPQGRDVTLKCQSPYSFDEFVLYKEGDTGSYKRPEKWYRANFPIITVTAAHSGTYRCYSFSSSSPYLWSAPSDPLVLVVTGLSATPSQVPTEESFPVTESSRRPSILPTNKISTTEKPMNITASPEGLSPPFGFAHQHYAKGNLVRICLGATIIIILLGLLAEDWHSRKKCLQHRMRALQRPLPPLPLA
Nature of the assay: Cell ELISA (MSD) on CHO cells expressing mouse GPVI.

Assay [7] has as its target T6, mouse GPVI (full-length) expressed on …. Kind of assay: Cell ELISA (MSD) on CHO cells expressing GPVI. How it is done: as §1

T4 sequence (chain, as listed by the source limits assumed): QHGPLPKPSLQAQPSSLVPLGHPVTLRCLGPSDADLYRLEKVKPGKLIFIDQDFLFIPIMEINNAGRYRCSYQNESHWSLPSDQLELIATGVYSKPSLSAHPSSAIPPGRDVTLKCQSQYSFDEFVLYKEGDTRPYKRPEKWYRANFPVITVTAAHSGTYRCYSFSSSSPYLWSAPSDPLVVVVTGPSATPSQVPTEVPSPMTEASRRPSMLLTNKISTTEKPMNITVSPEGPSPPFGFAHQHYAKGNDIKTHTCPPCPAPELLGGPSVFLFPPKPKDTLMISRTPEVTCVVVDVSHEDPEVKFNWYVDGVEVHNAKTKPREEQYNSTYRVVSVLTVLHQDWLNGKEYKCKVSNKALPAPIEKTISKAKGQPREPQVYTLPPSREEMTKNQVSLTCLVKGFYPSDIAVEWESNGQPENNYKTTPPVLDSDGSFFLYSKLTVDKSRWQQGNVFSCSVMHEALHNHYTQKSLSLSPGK

B1: Fab #1 comprising a modified heavy chain constant region (Fab, V domains shown)
VH: QVQLVQSGAEVKKPGASVKVSCKASGYTFTSHYMHWVRQAPGQGLEWMGLIEPSEGETEYAQRFQGRVTMTRDTSTSTVYMELSSLRSEDTAVYYCARDSSRSYPLGFDIWGQGTLVTVSS
VL: QSVLTQPPSVSAAPGQKVTISCSGSSSNIGNNYVSWYQQLPGTAPKLLIYDNNKRPSGIPDRFSGSKSGTSATLGITGLQTEDEADYYCAAWDFRSSRWVFGGGTKLTVLG
notes: Human Fab from the Ylanthia library; produced in HKB11 cells; also called Fab #1 mod; HC
For orientation: EC50 means the concentration giving half of the maximal effect. With B1, the concentration for a half-maximal effect (EC50) amounted to 0.89 nM in assay [1] and 0.74 nM in assay [2].

B2: Reference Control Antibody RefFab #1 (humanized GPVI antibody of WO2011073954A2, SANOFI) (Fab, V domains shown)
VH: EVQLLESGPGLVAPSGSLSITCTVSGFSLTGYGVNWVRQPPGKGLEWLGMIWGDGSTDYQSTLKSRLSISKDNSKSQVFLKMNSLRTDDTARYYCARDLPMDYWGLGTSVTVSS
VL: DIQMTQSPSSLSASVGGRVTITCKASQDINKYIAWYQHKPGKGPSLLIHYTSTLQPGVPSRFSGSGSGRDYSFSISNLQPEDIATYYCLQYANLLTFGGGTKLEIKR
notes: Cloned into mammalian Fab expression vectors; a glycine-serine linker (G4S)2 was added to the C-terminus of the Fab heavy chain
Regarding B2, the binding result in assay [3], in assay [4], in assay [5] and in assay [6] was “no binding” throughout. The concentration for a half-maximal effect (EC50) in assay [1] is 2.8 nM; in assay [2], 2.09 nM.

B3: Fab #2 comprising a modified heavy chain constant region (Fab, V domains shown)
VH: QVQLVESGGGLVKPGGSLRLSCAASGFSFSDHYMSWIRQAPGKGLEWVSSVGSEGKFIDYAASVKGRFTISRDNAKNSLYLQMNSLRAEDTAVYYCARHYREFRWHYYYFDYWGQGTLVTVSS
VL: QSVLTQPPSVSGAPGQRVTISCTGSSSNIGAGYDVHWYQQLPGTAPKLLIYGNSNRPSGVPDRFSGSKSGTSASLAITGLQAEDEADYYCQSHDLGAHVWVFGGGTKLTVLG
notes: Human Fab from the Ylanthia library; produced in HKB11 cells; also called Fab #2 mod; HC
Take B3: the results for the EC50 in assay [1], in assay [2] and in assay [7] were 0.78 nM, 1.06 nM and 8.28 nM, respectively.

B4: Fab #3 comprising a modified heavy chain constant region (Fab, V domains shown)
VH: QVQLVESGGGLVKPGGSLRLSCAASGFSFGDYYVSWIRQAPGKGLEWVSAIGGSGSAVQYAESVKGRFTISRDNAKNSLYLQMNSLRAEDTAVYYCARHYREFRWHYYYFDYWGQGTLVTVSS
VL: QSVLTQPPSVSGAPGQRVTISCTGSSSNIGAGYDVHWYQQLPGTAPKLLIYGNSNRPSGVPDRFSGSKSGTSASLAITGLQAEDEADYYCQSHDLGAHVWVFGGGTKLTVLG
notes: Human Fab from the Ylanthia library; produced in HKB11 cells; also called Fab #3 mod; HC
As for B4, the 50% effective concentration (EC50) in assay [1] worked out at 0.77 nM; in assay [2] it was 1.06 nM; in assay [7], 3.74 nM.

B5: Fab #4 comprising a modified heavy chain constant region (Fab, V domains shown)
VH: QVQLVQSGAEVKKPGASVKVSCKASGGAFTSSYMHWVRQAPGQGLEWMGIIEPTGASTLYAQRFQGRVTMTRDTSTSTVYMELSSLRSEDTAVYYCARTGIALPLGFDLWGQGTLVTVSS
VL: QSVLTQPPSVSAAPGQKVTISCSGSSSNIGNNYVSWYQQLPGTAPKLLIYDNNKRPSGIPDRFSGSKSGTSATLGITGLQTEDEADYYCAAWSTRFRWVFGGGTKLTVLG
notes: Human Fab from the Ylanthia library; produced in HKB11 cells; also called Fab #4 mod; HC
Regarding B5, the EC50 stood at 0.78 nM in assay [1], 0.8 nM in assay [2] and 0.93 nM in assay [7].

The values above are taken from US20210214435A1 (MorphoSys, published 2021).
